The target of assay [1] is T1, CLL subset 2 typical BCR on TKO cells (FIG. 1B).
T1 construct: The light chain is the VL3-21 variant and carries R110; also called CLL subset 2 BCR; BCR of interest
The experiment in a line: FACS on TKO cells expressing the BCR, hybridoma supernatant. From the text: (§1) For the screening procedure, different vectors for the following heavy chain (HC) and light chain (LC) combinations of the corresponding CLL-BCRs were used in the previous transformation, and these combinations were used on the surface of the BCR reconstitution system: [0080] Control (transformation vector without BCR) (see FIG. 1A). [0081] Vector with HC/LC (VL3-21) typical of CLL subset 2 (see FIG. 1B). [0082] Vector with a non-CLL subset 2 HC/LC typical for CLL subset 2 (VL3-21; without target motif R110G) (see FIG. 1C) [0083] Vector with a HC typical for CLL subset 2/a non-CLL subset 2 LC (see FIG. 1D) [0084] Vector with a non-CLL subset 2 HC/a non-CLL subset 2 LC (see FIG. 1E) [0085] Vector with HC/LC typical for CLL subset 2 (VL3-21; including mutation R110G (target motif)) (see FIG. 1F).
(§2) In the first round of selection, supernatants from multiple clones were combined and examined with respect to their binding profile to the selection matrix. A positive binding profile is given if a specific binding to the “BCR-of-Interest” is shown. Groups showing such a profile were singulated, and the binding profile of each clone was characterized again on the selection matrix in a second round of selection. Binding of the monoclonal antibodies was verified using a FACS binding assay with a fluorescently labeled anti-mouse IgG antibody. […]

Assay [2] has as its target T1, CLL subset 2 typical BCR on TKO cells …. The experiment in a line: FACS binding assay on TKO cells, fluorescently labeled anti-mouse IgG.
Excerpt: as §1, §2

T1 sequence (heavy, as listed by the source, chain 1 of 2): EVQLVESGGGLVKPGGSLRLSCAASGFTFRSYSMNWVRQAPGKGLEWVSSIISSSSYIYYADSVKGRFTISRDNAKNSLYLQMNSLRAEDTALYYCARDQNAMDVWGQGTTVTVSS
T1 sequence (light, as listed by the source, chain 2 of 2): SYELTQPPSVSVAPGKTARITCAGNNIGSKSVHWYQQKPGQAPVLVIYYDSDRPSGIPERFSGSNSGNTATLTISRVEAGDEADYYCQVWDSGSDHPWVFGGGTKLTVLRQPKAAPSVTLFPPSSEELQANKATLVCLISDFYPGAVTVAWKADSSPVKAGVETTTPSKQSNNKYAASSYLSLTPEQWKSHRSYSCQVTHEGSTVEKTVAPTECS

B1: AVA-mAb02 (antibody, V domains shown)
VH: QVQLQQPGAELVRPGVSVKISCKGSGYTFTDYAIHWVKQSHAKSLEWIGVISTYYGDSNYNQKFKGKATMTVNKSSSTAYMELARLTSDDSAIYYCSRDTSNFDYWGQGTTLTVSS
VL: DIQMTQSPSSMYASLGERVTITCKASQDINSHLTWFQQKPGKSPKTLIYRANRLVDGVPSRFSGSGSGQDYSLTISSLEYEDMGIYYCLQYDEFPRTFGGGTKLEIK
notes: Murine monoclonal antibody; Tested as hybridoma supernatant and detected with anti-mouse IgG; also called VL3-21 specific antibody
For B1, the binding result in assay [1] is reported as “binds”.

B2: AVA-mAb01 (antibody, V domains shown)
VH: QVQLQQSGPGLVQPSQSLSITCTVSGFSLTSYGIHWVRQSPGKGLEWLGVIWRGGGTDSNAAFMSRLSITKDNSKSQVFFKMNSLQADDTAIYYCARSRYDEEESMNYWGQGTSVTVSS
VL: QIVLTQSPASLSASVGETVTITCRASGNIHSYLAWYQQKQGKSPQLLVYNAKTLADGVPSRFSGSGSGTQYSLKINSLQPEDFGSYYCQHFWNTPPTFGAGTKLELK
notes: Murine monoclonal antibody from a hybridoma, detected with anti-mouse IgG; also called specific monoclonal antibody against subset-2; the selected antibody
Turning to B2, the binding result in assay [2] is “binds”.
